Results on two molecules are retold here after patent US11304964B2, “Bolaamphiphilic compounds, compositions and uses thereof” (priority 2012, dated 2022).

Data set [1] can be described thus: Fluorescence in cerebral cortex after i.v. injection of albumin-FITC. Type of data set: in vivo. Particulars: mouse cerebral cortex fluorescence. The text has this:
FIG. 5A: Fluorescence in mouse cerebral cortex after i.v. injection of albumin-FITC (non-encapsulated) FIG. 5B: Fluorescence in mouse cerebral cortex after i.v. injection of albumin-FITC encapsulated in GLH-20 vesicles.

Data set [2] in a line: Tenofovir encapsulation in bolaamphiphile vesicles (UV absorbance after Sephadex G50 separation). In kind it is physicochemical. As to conditions: vesicles with vs without SA, Sephadex G50, absorbance at 260 nm. The procedure: Bolaamphiphiles, cholesterol, and CHMES (2:1:1 mole ratio) are dissolved in chloroform or a suitable solvent. […] The solvents are evaporated under vacuum and the resultant thin films are hydrated in 0.2 mg/mL CF solution in PBS and probe-sonicated (Vibra-Cell VCX130 sonicator, Sonics and Materials Inc., Newtown, Conn., USA) with amplitude 20%, pulse on: 15 sec, pulse off: 10 sec to achieve homogenous vesicle dispersions. Vesicle size and zeta potential were determined using a Zetasizer Nano ZS (Malvern Instruments, UK).
Methods were established to determine quantitatively the amount of the encapsulated tenofovir based on a UV absorption and determined the percent of tenofovir encapsulation by various vesicle formulations (data not shown). […] One objective of this work was to achieve the maximum amount of tenofovir encapsulated per vesicle along with a minimum loss of the non-encapsulated drug. Accordingly, several parameters were examined, such as varying the ratio among the vesicle components, changing the ratio of tenofovir to bolaamphiphiles, varying the pH of the hydration solution and also adding to the formulation additional additives, in the attempt to increase the encapsulation capacity of the vesicles.
In particular, in order to maximize tenofovir encapsulation the following parameters were studied: (1) tenofovir to GLH ratio; (2) adjusting the concentrations of cholestyrl hemisuccinate (CHEM) and cholesterol (CHOL), components that are used in the vesicle formulation, (3) examining several buffers and pHs in the encapsulation process, (4) time of sonication, and (5) tenofovir concentration, and (6) addition of stearyl amine to the vesicle formulation to enhance encapsulation by complexation with tenofovir.
The vesicles were prepared from formulations with and without SA and the non-encapsulated tenofovir (free tenofovir) was separated from the encapsulated tenofovir on Sephadex G50 column and the absorbance at 260 nm of each fraction collected from the column was read.

As for “Albumin-FITC: FITC-labelled protein albumin”, the “delivery to the brain” value in data set [1] (encapsulated in GLH-20 vesicles) is “delivered successfully to the brain”. Further, in data set [1] (un-encapsulated), the brain accumulation entry is on record as “little, if any, brain accumulation”. With `CCCCCCCCCCCCCCCCCCN` [SA, stearyl amine], the “effect of stearyl amine on tenofovir encapsulation” value in data set [2] is recorded as “increase tenofovir encapsulation”.
